Test results taken from IntAct's records for PubMed 19490898.

B1: Ras-related protein Rab-9A (Canis familiaris (dog)), P24408 (parent)
chain: MAGKSSLFKVILLGDGGVGKSSLMNRYVTNKFDTQLFHTIGVEFLNKDLEVDGHFVTMQIWDTAGQERFRSLRTPFYRGSDCCLLTFSVDDSQSFQNLSNWKKEFIYYADVKEPESFPFVILGNKIDISERQVSTEEAQAWCRDNGDYPYFETSAKDATNVAAAFEEAVRRVLATEDRSDHLIQTDTVSLHRKPKPSSSCC

Variants of: B1
Conditions: with rhbt3_human RHOBTB3, O94955
Sequence of rhbt3_human RHOBTB3, O94955 (O94955 whole entry): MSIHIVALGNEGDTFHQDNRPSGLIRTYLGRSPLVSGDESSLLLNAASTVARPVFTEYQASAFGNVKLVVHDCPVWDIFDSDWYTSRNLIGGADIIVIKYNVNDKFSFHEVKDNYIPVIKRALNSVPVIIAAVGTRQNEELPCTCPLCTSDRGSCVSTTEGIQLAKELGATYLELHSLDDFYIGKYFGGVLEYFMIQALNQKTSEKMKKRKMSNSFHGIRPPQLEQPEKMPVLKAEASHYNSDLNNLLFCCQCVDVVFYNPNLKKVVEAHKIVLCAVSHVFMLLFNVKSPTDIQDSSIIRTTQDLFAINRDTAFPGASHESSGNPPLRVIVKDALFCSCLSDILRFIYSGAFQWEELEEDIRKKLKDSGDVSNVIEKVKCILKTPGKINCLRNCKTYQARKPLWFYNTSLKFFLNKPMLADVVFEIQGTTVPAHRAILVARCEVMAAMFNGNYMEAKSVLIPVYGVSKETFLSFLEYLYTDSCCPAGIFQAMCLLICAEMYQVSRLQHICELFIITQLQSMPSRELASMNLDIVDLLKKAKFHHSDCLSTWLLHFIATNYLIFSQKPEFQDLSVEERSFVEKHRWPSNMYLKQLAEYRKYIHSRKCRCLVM

effect of a mutation on the interaction	Variant
decreasing interaction	MAGKSSLFKVILLGDGGVGKNSLMNRYVTNKFDTQLFHTIGVEFLNKDLEVDGHFVTMQIWDTAGQERFRSLRTPFYRGSDCCLLTFSVDDSQSFQNLSNWKKEFIYYADVKEPESFPFVILGNKIDISERQVSTEEAQAWCRDNGDYPYFETSAKDATNVAAAFEEAVRRVLATEDRSDHLIQTDTVSLHRKPKPSSSCC [S21N]
